Measurements as given in patent US20260226168A1.

Tests used:
hGPRC5D [1] = target: hGPRC5D (UniProt Q9NZD1); assay: flow cytometry on MM.1S cells; negative control (EC50 '/': curve could not be fitted)
hGPRC5D [2] = target: hGPRC5D (UniProt Q9NZD1); assay: flow cytometry on RPMI-8226 cells; negative control (EC50 '/': curve could not be fitted)
hGPRC5D [3] = target: hGPRC5D (UniProt Q9NZD1); assay: flow cytometry on NCI-H929 cells; negative control (EC50 '/': curve could not be fitted)

hGPRC5D, sequence (Q9NZD1 whole entry): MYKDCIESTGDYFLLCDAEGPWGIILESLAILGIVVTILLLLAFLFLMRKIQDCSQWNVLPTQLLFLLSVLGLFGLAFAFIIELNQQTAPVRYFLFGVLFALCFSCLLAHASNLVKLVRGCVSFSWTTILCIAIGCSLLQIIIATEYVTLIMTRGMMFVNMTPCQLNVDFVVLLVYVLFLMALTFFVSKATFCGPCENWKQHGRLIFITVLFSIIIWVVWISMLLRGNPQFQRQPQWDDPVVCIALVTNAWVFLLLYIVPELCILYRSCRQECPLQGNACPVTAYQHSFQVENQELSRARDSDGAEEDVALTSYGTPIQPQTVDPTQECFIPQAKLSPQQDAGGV

Top(MFI) (hGPRC5D [1]): 6770
Top(MFI) (hGPRC5D [2]): 3860
Top(MFI) (hGPRC5D [3]): 4180
Substance: hIgG1 monoclonal antibody (Biointron, Cat. No. B117901)
